The source of these data is patent publication US20140341809A1.

Assay [1] has as its target …/HLA-A2. In words: SPR, Biacore 3000, 25 C.
Assay [2] concerns the target …/HLA-A2. In words: SPR, Biacore 3000, 25 C (FIG. 2B shows a kinetic titration for this pair). In general terms: SPR reads the build-up and loss of mass on a sensor chip optically.
Assay [3] has as its target …/HLA-A2. The experiment in a line: SPR, against wild-type DMF5.

Turning to “high-affinity DMF5 variant αD27Y/βL95W (TCR)”, the Kd (in general, a measure of binding affinity in units of concentration) with …/HLA-A2 [1] came out at 1700 nM; with …/HLA-A2 [2] it was 24 nM.

DMF5 TCR αD27W mutant returned a Kd with …/HLA-A2 [1] of 680 nM. The substance also came in with a ΔΔG in the assay with …/HLA-A2 [3] of -1.6 kcal/mol.
